Data published in the nanobody polyreactivity screen of Harvey et al. (2022).

Experiment: yeast display, Sf9 membrane polyspecificity reagent, FACS + sequencing; frameworks hold sequencing errors
Outline: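 In a synthetic yeast display library (Saccharomyces cerevisiae BJ5465), nanobody expression was induced with galactose for 36–48 hours. FACS gates were set low and high (top ~1%) using anti-HA fluorescence for expression and streptavidin fluorescence for binding of the Sf9 membrane reagent. Each polyreactivity label is drawn from the gate of origin.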

Sequence	polyreactivity (PSR sort gate)
QVQLVESGGGLVQAGGSLRLSCAASGIIFSYYAMGWYRQAPGKERELVAAITYSGGSTYYADSVKGRFTISRDNAKNTVYLQMNSLKPEDTAVYYCDAEDYYYYSWYEYSYYYWGQGTQVTVSS	high polyreactivity
QVQLVESGGGLVQAGGSLRLSCAASGSTFPQYAMGRYRQAPGKERELVAAISRSGGSTYYADSVKGRFTISRDNAKNTVYLQMNSLKPEDTAVYYCNVKSGFWFYPTMDYWGQGTQVTVSS	high polyreactivity
QVQLVESGGGLVQAGGSLRLSCAASGRTYPRYGMGWYRQAPGKERELVDTIRTGGRTNYADSVKGRFTISRDNAKNTVYLQMNSLKPEDTAVYYCATDSSKHPYSPTLLKFDYWGQGTQVTVSS	low polyreactivity
QVQLVESGGGLVQAGGSLRLSCAASGRILAGYAMGWYRQAPGKERELVAVISVGTGSTYYADSVKGRFTISRDNAKNTVYLQMNSLKPEDTAVYYCAAVTAITSLRMGYWGQGTQVTVSS	low polyreactivity
QVQLVESGGGLVQAGGSLRLSCAASGFTLDDNGMGWYRQAPGKERELVASITWSGGSTYYADSVKGRFTISRDNAKNTVYLQMNSLKPEDTAVYYCNVGDPIGGFLSYWGGDYWGQGTQVTVSS	low polyreactivity
QVQLVESGGGLDQAGGSLRLSCAASGNIFVEYAMGWYSQAPGKERELVAAITNSGGRTHYADSVKGRFTISRDNAKNTGSLQMNSRKPEDTAVFYCAAPTKYRSRRYYWGQGTQVSVSS	high polyreactivity
QVQLVESGGGLVQAGGSLRLSCAASGRIFPGNPMGWYRQAPGKERELVAGISFSGGRTYYADSVKGRFTISRDNAKNTVYLQMNSLKPEDTAVYYCAADAQAPPGGFKEYDYWGQGTQVTVSS	low polyreactivity
QVQLVESGGGLVQAGGSLRLSCAASGIIFAFYAMGWYRQAPGKERELVAAISIDGSTYYADSVKGRFTISRDNAKNTVYLQMNSLKPEDTAVYYCAAEGNGYLVSTWWVRYEYWGQGTQVTVSS	low polyreactivity
QDQLVESGGGLVQAVGSLRLSCAASGSIFDVNALGWYRQAPGKERELVAAISQRGTRTYYADSVKGRFTISRDNAKNTVYLQMNSLKPEDTAVYYCNRGGWRQYDSWGQGTQVTVSS	high polyreactivity
QVQLVESGGSLVQAGGSLRLSCAASGRIFITNAMGAYRQAPGKERELVAAIRRRGGNTYYADSVKGRFTISRDNAKNTVYLQMNSLKPEDTAVYYCAVYPRPYKYNYWGQGTQVTVSS	high polyreactivity
QVQLVESGGGLVQAGGSLRLSCAASGRTFYYYAMGWNRQAPGTERELVAAITTDGGNTYYADSVKGRFTISRDTAKNTVYLQMNSLKPEDTAVYYCATDGYEYTDYGSSGYDYWGQGTQVTVSS	low polyreactivity
QVQLVESGGGLVQAGGSLRLSCAASGRIFYFYAMGWYRQAPGKERELVAAINIGGSTNYADSVKGRFTISRDNAKNTVYLQMNSLKPEDTAVYYCNAEAYSRSDYYRYDYWGQGTQVTVSS	low polyreactivity
QVQLVESGGGLVQAGGSLRLSCAASGIIFYGYVMGWYRQAPGKERELVATITSSGGSTYYADSVKGRFTISRDNAKNSVYLQMNSLKPEDTAVYYCAADYYYGAWVRHDYWGQGTQVTVSS	low polyreactivity
QVQLVESGGGLVQAGGSLRLSCAASGSTFSRYAMGWSRQAPGKERELVAAISWSGGSTYYAVSVKGRFTISRDNAKNTVYLQMISLKPEDTAVYYCAAYTYSFRANHDYWGQGTQVTVSS	high polyreactivity
QVQLVESGGGLVQAGGSLRLSCAASGSTFTTYAMGWYRQAPGKERELVAVITDSGGTYYADSVQGRFTISRDNAKNTVYLQMNSLKPEDTAVYYCNRVFPPTDYEFDSWGQGTQVTVSS	low polyreactivity
QVQLVETGGGLVQAGGSLRLICAASGRIFTWYAMGWYRQGPGKERELVATNSYNGGRTYYADSVKGRFTISRDNAKNTVYLQMNSLKPEDNAVYYCNTVPVGSVSHGLDSRFGYWGQGTQVTVSS	high polyreactivity
QVQLEESGGGLVQAGGSLRLSCAASGFIFSWYAMGWYRQAPGKERELVARISSSGGNTYYADSVKGRFTISRDNAKNTVYLQMNSLKPEDTAVYYCAATRYSLSGYGYWGQGTQVTVSS	high polyreactivity
HVQLVESGGVLVQAGGSLRLSCAASGRIFRQNTMGWYRQAPGKEREIDATISWRGTRTNYADSVKGRFTISRDNAKNTVYLQMNSLKPEDTAVYYCNAQSWAYTLRTSLYDYWGQGTQVTVSS	high polyreactivity
QVQLVESGGGLVQAGGSLRLSCAASGRIFRYNAMGWYRQAPGKERELVAAITSGTGTNYADSVKGRFTISRDNAKNTVYLQMNSLKPEDTAVYYCAAQPGQAWWSTDHDDYWGQGTQVTVSS	low polyreactivity
QVQLVESGGGLVQAGGSLRLICAASGSTYHYAMGWYRQAPGKERELVASITWRGDTTYYADSVKGRFTISRDNAKYNVYLQMNSLKPEDTAVYYCAAYHFSFGWIRVDYWGQGTQVTVSS	high polyreactivity
QVQLVESGGGLVQAGGSLRLSCAASGGIFTLYVMGWYRQEPGKERELVAAISRTGGSTYYADSVKGRLTISRDNAKNTVYLQMNSLKPEDTAVYYCDAERGVDDSARYGDYDYWGQGTQVTVSS	low polyreactivity
QVQLVESGGGLVQAGGSLRLSCAASGSTFVVNAMAWYRQAPGKERELVAVISYSGDSTYYADSVKGRFTISRDNAKNTVYLQMNSLKPEDSAVYYCNADYYDESNWGQGTQVTVSS	low polyreactivity

Sequence	polyreactivity (PSR sort gate)
QVQLVESGGGLVQAGGSLRLSCAASGSIFSFNAMGRSRQAPGKERELVASITSGGSTNYADSVKGRFTISRDNAKNTVYLQMNSLKPEDTEVYYCNARFPYLSRWLVRGLASYDYWGQGTQVTVSS	low polyreactivity
QVQLVESGGGLVQAGVSLRLSCAASASTFSIYAMGWYRHAPGKERELVAAIDSGGRTKYADSVKGRFTISRDNAKNPVYLQMNSLKPEDTAVYYWAAVFRGWWLYDYWGLGTQVTVSS	low polyreactivity
QVQLVDSGGGLVQAGGSLRLSCAASGRTFDNYAMGWYRQAPGKERELVAAISSSGGRTYYADSVKGRFTISRDNAKNTVYLQMNSLKPEDTAVYYCAAVWPVYRTHPGMDYWGHGTQVTVSS	high polyreactivity
QVQLEESVGGLVQAGGSLRLSCAASGFIFPYYTMGWYRQAPGKERELVAAISRTAVGTYYADSVKGRFTISRDNAKNTVYLQMNSLKPEDTAVYYCAVVTQRKYDYWGQGTQVTVSS	high polyreactivity
QVQLVESGGGLVQAGGSLRLSCAASGSIFRFYTMGWYRQAPGKERELVAAIRYRGTSTYYADSVKGRFTISRDNAKNTVYLQMNSLKPEDTAVYYCATRNIYFSSVDYWGQGTQVTVSS	high polyreactivity
QVQLVESGGGLVQAGGSLRLSCAASGRNFKQYAMGWYRQAPGKERELVAVITRGGGSTYYADSVKGRFTISRDNAKNTVYLQMNSLKPEDTAVYYCAARGTQAPPGRRTGGYNSWGQGTQVTVSS	high polyreactivity
QVQLVESGGALVQAGGSLRLSCAASGFTFRGYAMGWYRQAPGKEMELVAAIRGGGGRTYYADSVKGRFTISRDNAKNTVYLQMNSLKPEDTAGYYCAASYYDYSDVRSDYWGQGTQVTVSS	high polyreactivity
QVQLVESGGGLVQAGGSLRLSCAASGRIYSVYGLGWYRQAPGKDRELVAAISSSAGSTNYADSVKGRFTISRDNAKNTVYLQMNSLKPEDTAVYYCAAYYRRVVYYPTAYYIRKYDYWGQGTQVTVSS	high polyreactivity
QVQLVESGGGLVQAGGSLRLSCAASGIIFRLYAMGWYRQAPGKERELVAAISSGGSTYADSVKGRFTISRDNAKNTVYFQMNSLKPEDTAVYYCAAGRVWHLYWYNYWGQGTQVTVSS	high polyreactivity
QVQHVESGGGLVQAGGSLRLSSAASGFTFSRNAMGWYRQAPGKERELVAAIDSGGSTDYADSVKGRFTISRDNAKNTVYLQMNSLKPEDTAVYYCNVDGYYLFVRGYEYWGQGTQLTVSS	low polyreactivity
QVQLVESGGGLVQAGGSLRLSCAASGSIFRYYAMGWYRQAPGKERELVAAITASGGRTHYADSVKGRFTISRDNAKNTVYLQLNSLKLEDTAVYYCAADLYYAWYWKQHYDYWGQGTQVTVSS	high polyreactivity
QVQLVESGGGLVQAGGSLRLSCAASGFTFSYYAMGWSRQAPGKERELVAAITTSGGRTYYADSVKGRFTISRDNAKNTFYLQMNSLKPEDTAVYYCAATYPRYYSGEFDYWGQGTQVTVSS	high polyreactivity
HLQLVETVGGLDQAGGSLRLSFAASGITSYGYAKGGYSEAAANESELVASISWTGGNTYADSLKGRFTISRDNAKNSVYLQMNSLKPEDSAVYYSNAGRSWDFLYCYEYWGQGTQVTVSS	low polyreactivity
QVQLVESGGGLVQAGGSLRLSCAASGRIFSKNAMGWCRQAPGKERELVAGITSNSGSTYYADSVKGRFTISRDNAKNTVYLQMNSLIPEDTAVYYCAARFPHRHYLLYTYDYWGQGTQVTVSS	low polyreactivity
QVQLEESGRGLVQAGGSLRLSCAASGSIFGVYTMGWYRPAPRKDRELVAAISASGGRTYYADSVKGRFTISRDTAKITVYLQMNSLKPEDTAVYYCAARASKGYGWYDYWGQGTQVTVSS	high polyreactivity
QVQLVESGGGLVQAGGSLRLSCAASGFTFGNNAMGWYRQAPGKERELVAGISRTGGRTYYSDSVKGRFTISRDNAKKTVYLKMNSLKPEDTAVYYCNAVSTLYTGYDYWGQGTQVTVSS	high polyreactivity
QVQLVESGGGLVQAGGSLRLSCAASGSTFQNYAMGWYRQAPGKERELVAAINWSGGSTYYADSVKVRFTISRDNAKNTVYLQMNSLKPEDTAVYYCATDDPLAYGSFGPYQPYDYWGQGTQVTVSS	low polyreactivity
QVQLVESGGGLVQAGGSLRLSCAASGSTFYYYAMGWYRQAPGKERELVAAITNVTSTYYADSVKGRFTISRDNAKNTVYLQMNSLKPEDTAGYYCAAPDPSTEVTYDYWGQGTQVTVSS	low polyreactivity
QVQLVESGGGLVQAGGSLRLSSAASGSTFGPYAMGWYRQAPGKERELVATITRNGGSTYYADSVKGRFTISRDYAKNTVYLQMNSLKPEETAFYSCNAEGRWSSFTQRMDYWGQGTQVNVSS	low polyreactivity
QVQLVESGGGLVQAGGSLRLSCAASGRISPNNAMGWYIPAPGKERELVAAITASGGTTYYADSVKGRFTISRDNAKYTVYLQMNSLKPEDSAVYYCAAAVWYRGWYRYDYWGQGTQVTVSS	low polyreactivity
QVQLVESGGGLVQAGGILSLSCAASGSTFPYNAMGWYRQAPGIERQLVAAISSGGSTYYADSVKGRFTNSRDNAKNTVYLMMNRLKPEDTAVYYCAASWGKYIRSWGYGYWGQGTLVTVSS	high polyreactivity
